{
  "source": "paper PMC6168263",
  "about": "(The Journal of Cell Biology, 2018)",
  "binders": {"B1": {"name": "MBP-Hof1-FL-6His (natural protein, S. cerevisiae, UniProt Q05080 1-669, looked up)", "chain": "MSYSYEACFWDPNDNGVNILLGHISQGIRSCDSMILFFKQRSELEKDYARRLGAITGKLDKDIGTNMDYGKLNETFNVVLSVEKARAQSHSKQSEILFRQIYTDTKAFAANLQARYTTLSGKIERLRMDKFNKKKGCEVLQKKLQDAQIRFRDLQLNENNMIGAKRVEHNKRELLKWESNSQEYKVQLDVLKQEYKASQKFWIHEWAQLSCELQEMENARISFLQSKLQQFATSSMETYILEQTKMDMLTNHLNSFTAADEISTFSKENGTGRLKHKTSKGDMNSSANWAQMSSISTTSKKTESYMDNIRKLSSQLKETENKRKLASIDKYEKPLPSPEVTMATQFRNSTPVIRNETKVVANPTLSLRSSPVQLQSNVDDSVLRQKPDKPRPIVGEEQLKPDEDSKNPDEKGLMVHKRNQSLSSPSESSSSNPTDFSHIKKRQSMESMTTSVSSMANSIDDSQRFAKSWNSSNRKRKSMSHLQVPSSASSRSDDGGRTPNSAHNLNEDDYNTRRDTSTSTILFKPPVAVRGTSRGHTHRQSMIMQDSSNPIEDALYEMERIQSSSKPGTKTGNIMDERGVVRDRGITVTLPIVTSEGFPVIEYAKAMYPLIGNEAPGLANFHKGDYLLITEIVNKDWYKGEVYDNDRIDRNHRIGLIPYNFIQLLHQGL"}, "B2": {"name": "C-Bud6 (550-788) (domain or fragment, S. cerevisiae, UniProt P41697 550-788, looked up)", "chain": "AKNSSNRMYMEKSQTELGDLSDTLLSKVDDLQDVIEIMRKDVAERRSQPAKKKLETVSKDLENAQADVLKLQEFIDTEKPHWKKTWEAELDKVCEEQQFLTLQEELILDLKEDLGKALETFDLIKLCCEEQEKNPSRSKSNPILPIMRPGTFNQVREQVMVAVQSLNPDHDSRVEAIDKAEKMWEMERKLKASNEFDDELENFVGNSNLKKSGGFEEVERIRKQKDEANLRAYFGPGFT"}, "B3": {"name": "MBP-Hof1-NT-SNAP-549 (domain or fragment, S. cerevisiae, UniProt Q05080 1-340, looked up)", "chain": "MSYSYEACFWDPNDNGVNILLGHISQGIRSCDSMILFFKQRSELEKDYARRLGAITGKLDKDIGTNMDYGKLNETFNVVLSVEKARAQSHSKQSEILFRQIYTDTKAFAANLQARYTTLSGKIERLRMDKFNKKKGCEVLQKKLQDAQIRFRDLQLNENNMIGAKRVEHNKRELLKWESNSQEYKVQLDVLKQEYKASQKFWIHEWAQLSCELQEMENARISFLQSKLQQFATSSMETYILEQTKMDMLTNHLNSFTAADEISTFSKENGTGRLKHKTSKGDMNSSANWAQMSSISTTSKKTESYMDNIRKLSSQLKETENKRKLASIDKYEKPLPSPEV", "modifications": "BG-549 SNAP dye on the SNAP tag"}, "B4": {"name": "MBP-Hof1 F-BAR (1-275) (domain or fragment, S. cerevisiae, UniProt Q05080 1-275, looked up)", "chain": "MSYSYEACFWDPNDNGVNILLGHISQGIRSCDSMILFFKQRSELEKDYARRLGAITGKLDKDIGTNMDYGKLNETFNVVLSVEKARAQSHSKQSEILFRQIYTDTKAFAANLQARYTTLSGKIERLRMDKFNKKKGCEVLQKKLQDAQIRFRDLQLNENNMIGAKRVEHNKRELLKWESNSQEYKVQLDVLKQEYKASQKFWIHEWAQLSCELQEMENARISFLQSKLQQFATSSMETYILEQTKMDMLTNHLNSFTAADEISTFSKENGTGRLK"}, "B5": {"name": "6His-Bnr1 FH2 (868-1,291) (domain or fragment, S. cerevisiae, UniProt P40450 868-1291, looked up)", "chain": "DLKPPPTEKRLKQIHWDKVEDIKDTLWEDTFQRQETIKELQTDGIFSQIEDIFKMKSPTKIANKRNAESSIALSSNNGKSSNELKKISFLSRDLAQQFGINLHMFSQLSDMEFVMKVLNCDNDIVQNVNILKFFCKEELVNIPKSMLNKYEPYSQGKDGKAVSDLQRADRIFLELCINLRFYWNARSKSLLTLSTYERDYYDLIFKLQKIDDAISHLNRSPKFKSLMFIITEIGNHMNKRIVKGIKLKSLTKLAFVRSSIDQNVSFLHFIEKVIRIKYPDIYGFVDDLKNIEDLGKISLEHVESECHEFHKKIEDLVTQFQVGKLSKEENLDPRDQIIKKVKFKINRAKTKSELLIGQCKLTLIDLNKLMKYYGEDPKDKESKNEFFQPFIEFLAMFKKCAKENIEKEEMERVYEQRKSLLDMR"}},
  "key": {"[1]": {"target": "6His-Bnr1 FH1-FH2-C (residues 757-1,375) (S. cerevisiae, UniProt P40450 757-1375)", "sequence (P40450 757-1375)": "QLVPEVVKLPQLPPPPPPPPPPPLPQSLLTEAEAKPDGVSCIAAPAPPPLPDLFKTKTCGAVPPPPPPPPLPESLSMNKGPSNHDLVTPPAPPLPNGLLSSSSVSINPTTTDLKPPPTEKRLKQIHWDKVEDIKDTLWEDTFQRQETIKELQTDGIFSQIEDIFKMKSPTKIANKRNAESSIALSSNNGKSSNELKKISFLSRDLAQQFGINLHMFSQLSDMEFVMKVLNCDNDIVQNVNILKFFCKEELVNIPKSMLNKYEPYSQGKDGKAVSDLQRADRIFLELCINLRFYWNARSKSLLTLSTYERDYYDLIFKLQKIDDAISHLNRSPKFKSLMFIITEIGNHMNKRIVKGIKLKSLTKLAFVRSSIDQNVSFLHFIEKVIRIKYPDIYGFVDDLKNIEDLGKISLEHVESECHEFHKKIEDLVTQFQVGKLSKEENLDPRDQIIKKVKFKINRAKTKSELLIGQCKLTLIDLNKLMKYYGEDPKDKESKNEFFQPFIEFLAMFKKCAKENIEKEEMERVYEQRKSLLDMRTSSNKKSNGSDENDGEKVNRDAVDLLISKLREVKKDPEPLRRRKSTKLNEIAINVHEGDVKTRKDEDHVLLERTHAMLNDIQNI", "assay": "negative-stain single-particle EM"}, "[2]": {"target": "649-biotin-SNAP-C-Bnr1 (S. cerevisiae, UniProt P40450 757-1375, BG-649-PEG-Biotin on the SNAP tag)", "sequence (P40450 757-1375)": "as above", "assay": "TIRF microscopy of labelled protein on formin-coated beads"}, "[3]": {"target": "B5", "assay": "negative-stain single-particle EM"}, "[4]": {"target": "the molecule itself", "assay": "negative-stain single-particle EM"}},
  "data": [
    {"binder": "B1", "values": [
      {"measurement": "stoichiometry N", "setting": "[1]", "value": "2 C-Bnr1 dimers per Hof1-FL dimer"}
    ]},
    {"binder": "B2", "values": [
      {"measurement": "binding result", "setting": "[2]", "value": "binds"}
    ]},
    {"binder": "B3", "values": [
      {"measurement": "binding result", "setting": "[2]", "value": "binds"}
    ]},
    {"binder": "B4", "values": [
      {"measurement": "stoichiometry N", "setting": "[3]", "value": "2 Bnr1 FH2 domains per Hof1 F-BAR domain"}
    ]},
    {"binder": "B5", "values": [
      {"measurement": "stoichiometry N", "setting": "[4]", "value": 2}
    ]}
  ]
}
